The data set relates to 30S ribosomal subunit (with S1). Description: filter binding. The note with it: no initiator tRNA; Not given in the material for EMSA, SPR and filter binding (buffer with monovalent ions and MgCl2; RNA renatured 90°C 1 min, ice, then 25°C 30 min).

rpsOSD mRNA showed a binding signal (fold higher affinity than WT rpsO) of 5. Take thrSSD mRNA: the binding signal (fold higher affinity than WT thrS) is 5. The substance thrS mRNA returned a Kd of 1 µM. Same read-out and setting: with sodB mRNA the figure was 1 µM; with rpsO mRNA, 1 µM.

These data come from publication PMC3858243.
